Test results: the supplement of paper PMC9732359
± gives the uncertainty stated by the source.

Test: protein stability index of a GFP-peptide fusion (yeast GPS) (PSI 1-4); higher = more stable; sorted into four equal gates, so the index is relative within each strain
In short: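 The protein stability index combines read frequencies across sorting gates, each weighted by its gate number and then summed. To obtain those frequencies, a pooled yeast library of GFP fusions to tiled 17-residue yeast protein peptides, on a plasmid also expressing Cherry, was grown to mid-log phase in leucine-free medium. The cells were sorted into four equal gates by GFP/Cherry ratio before plasmid amplification by PCR and Illumina sequencing.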

Sequence | protein stability index (doa10∆) | protein stability index (pdr5∆) | protein stability index (san1∆) | protein stability index (ubr1∆)
RHQQLLRSRLQQQQQQQ [SNF5] | 2.47 ± 0.078 | 2.54 ± 0.078 | 2.4 ± 0.12 | 2.67 ± 0.072
LILILVISFGQPKLNPM [SWI1] | 1.68 ± 0.054 | 1.61 ± 0.042 | 1.78 ± 0.092 | 2.09 ± 0.04
ERVWNICLYSSFQKNSL [AAR2] | 1.8 ± 0.059 | 2.01 ± 0.046 | 2.18 ± 0.1 | 2.02 ± 0.034
DICLKLNLDSEQTVEYM [RPN3] | 3.37 ± 0.23 | 3.28 ± 0.2 | 2.97 ± 0.24 | 3.07 ± 0.092
SCGYPAAKTRSYNWGAK [RPL37A] | 2.21 ± 0.29 | 3.34 ± 0.12 | 3.1 ± 0.085 | 3.31 ± 0.12
TSRIDEEKPGLIITRKA [SMC4] | 2.91 ± 0.063 | 3.07 ± 0.052 | 3.07 ± 0.044 | 3 ± 0.057
KSHNAHVRCGTAFALGI [RPN2] | 1.72 ± 0.27 | 2.41 ± 0.1 | 2.18 ± 0.14 | 1.8 ± 0.075
KGTNGKKALKVRTSATF [RPL25] | 3.15 ± 0.13 | 3.03 ± 0.12 | 3.06 ± 0.13 | 3.3 ± 0.068
EQYTKKINSWDQVLVKG [YJL041W/NSP1] | 1.72 ± 0.095 | 2.29 ± 0.1 | – | 1.48 ± 0.087
EPFTILGAVAGLIPYPH [RET1] | 2.17 ± 0.063 | 2.13 ± 0.051 | 2.13 ± 0.078 | 1.83 ± 0.043
ELSKEEKERLESLTKEI [SMC3] | 3.01 ± 0.13 | 3.13 ± 0.15 | 3 ± 0.059 | 3.17 ± 0.077
VLRLNAIPLLKVLRKFR [NUT1] | 1.98 ± 0.052 | 2.21 ± 0.054 | 2.06 ± 0.084 | 2.3 ± 0.038
KEKYGLAVSTILGKNFD [SMC1] | 2.98 ± 0.07 | 2.82 ± 0.066 | 2.69 ± 0.057 | 2.58 ± 0.05
KFLILNENPINKIMTNQ [NUT1] | 2.9 ± 0.11 | 2.75 ± 0.1 | 2.67 ± 0.07 | 2.99 ± 0.089
TEDIREGDQAEVIFSFE [YMR129W/POM152] | 3.47 ± 0.087 | 3.39 ± 0.072 | 3.19 ± 0.066 | 3.44 ± 0.071
TDDVRLAPELNQAIWKR [RPL31A] | 3.28 ± 0.1 | 3.3 ± 0.077 | 3.18 ± 0.079 | 3.12 ± 0.048
ATVEECVKLTVRSLLEV [PRE6] | 1.53 ± 0.052 | 1.72 ± 0.064 | 1.88 ± 0.12 | 1.47 ± 0.055
IPGEYVTYALSGYVRSR [RPS21A] | 2.18 ± 0.29 | – | 2.61 ± 0.21 | 2.92 ± 0.16
FAALSDSYGQGSMTKTW [SSN2] | 3.17 ± 0.094 | 3.34 ± 0.088 | 3.23 ± 0.1 | 3.2 ± 0.063
YIGEFEYIDDHRSGKIV [RPS22A] | 2.9 ± 0.057 | 3.13 ± 0.061 | 2.99 ± 0.051 | 3.01 ± 0.043
TISQALLNAADRDALSG [PUP3] | 2.82 ± 0.12 | 2.11 ± 0.097 | 1.95 ± 0.17 | 1.95 ± 0.068
MGSLINGITLALIDAGI [SKI6] | 1.89 ± 0.1 | 2.1 ± 0.055 | 2.05 ± 0.075 | 2 ± 0.051
LQAIQEKLNKTDENTPS [ITC1] | 3.12 ± 0.098 | 3.08 ± 0.061 | 2.98 ± 0.047 | 2.89 ± 0.043
LQNKPDAKKARFWSFMK [SIR4] | 2.55 ± 0.098 | 2.68 ± 0.13 | 2.61 ± 0.093 | 2.17 ± 0.19
NINNNINSTKNGKDNNN [MED2] | 3.28 ± 0.068 | 3.26 ± 0.053 | 3.24 ± 0.045 | 3.35 ± 0.041
